{"source": "paper PMC3934934", "about": "“The Self-Interaction of a Nodavirus Replicase Is Enhanced by Mitochondrial Membrane Lipids” (PLoS ONE, 2014)", "binders": {"B1": {"name": "MBP-tagged full-length (FL) WhNV protein A (natural protein)", "chain": "MSSVIKTIVVKTLQCTVKCVCVGVRQQYGLLRRHPKTIACALVGGIIAHDVLHLYAAVYRVENPWEFVPTEGPRGVIVLRVYNALRFTAAKWRWNCWTIFGKFPFNSEQFSRIMETSTERKPDLRPLLVPAHETIEVYPCNNIHSHPRSAEFRSSANEYLVRSVRRAGYPPYVVSSSKRDFCDGNRFFYCPKDFGMQFRNDPISNNHALVFTDVDYYANMNRWLQLFLPTCLYTLVPTRLNYSNDEFAYRFENNEIVYNVTGGGEYRHSLWDYKGDTVTVVDEYGNLLIFDIEQRRVQGDEQHRLIWLLPKAKITDPLWIVGPTEWYDKLLVRKTVQQGRLKILWEPIADDLSIGLHGSNYSVSLKGELFEAIRTRISCKDSTPYVSDVERMLREAKHKNFLTDAPILYHCFQDDVIIRPNVVKTGSFPVTYNAIPKKAPSVTEDPKMPGQVVTTPLVSQPALFAGKGFNADKACIEGRIEKVRNVTKFPIKYVRYAAEFVKLVIPETIAGTGVPNSIGMIREEQDKVAQRARFDRVAPIMSTQTENSIKAFIKTEMYAAAKAPRNISTMAPEITIQSSAYSLPMAKIFKKIPWYCPGKNPKEITLRLAEVCLQDPDHELEEGDYTCMDGTQSPDYSDLLLLPIYMRYFAKQYRGQFKNLYNQIYKQRATTSSGVPYNPEMTIRSGSSITTHAGTLNNAFNIYAALRDMGYDETTAWDKVGAVFGDDSLNANHQGEFHSYIEHVTKVLGMRYKSNLRERGQPVLFLGRYFVDPITSYDSFADPMRTIGKLHATANKNVSVEQGAANKAHGYITTDSKTPIIGAWARRVLEITKKKFKNGTGEEQYRCSNAWPQKDEAAIRAAMAAVLEVDEAQLIAQNEAVLKVNSLDQFPVVFDTYYDHKQLAEVDGQLVGTDLHIKEEDERQPETSIDSVPSTGPPPSNGDPNAGGKPTDGPSKGKRKVKGRRPRTAGDPATLRLTDAGSSRRVKPPRKLRPEAKRGGRPIETLVFKNSSLS", "notes": "also called MBP-protA; 1–1014 MBP/protA; source: E. coli strain TB1, purified (amylose resin); not shown: MBP, N-terminal, kept"}, "B2": {"name": "His-protA fragment aa 481–659, in vitro translated (domain or fragment)", "chain": "EKVRNVTKFPIKYVRYAAEFVKLVIPETIAGTGVPNSIGMIREEQDKVAQRARFDRVAPIMSTQTENSIKAFIKTEMYAAAKAPRNISTMAPEITIQSSAYSLPMAKIFKKIPWYCPGKNPKEITLRLAEVCLQDPDHELEEGDYTCMDGTQSPDYSDLLLLPIYMRYFAKQYRGQFKN", "notes": "source: in vitro translated in nuclease-treated rabbit reticulocyte lysates"}, "B3": {"name": "His-protA fragment aa 255–480, in vitro translated (domain or fragment)", "chain": "EIVYNVTGGGEYRHSLWDYKGDTVTVVDEYGNLLIFDIEQRRVQGDEQHRLIWLLPKAKITDPLWIVGPTEWYDKLLVRKTVQQGRLKILWEPIADDLSIGLHGSNYSVSLKGELFEAIRTRISCKDSTPYVSDVERMLREAKHKNFLTDAPILYHCFQDDVIIRPNVVKTGSFPVTYNAIPKKAPSVTEDPKMPGQVVTTPLVSQPALFAGKGFNADKACIEGRI", "notes": "as for B2"}, "B4": {"name": "His-protA fragment aa 1–254, in vitro translated (domain or fragment)", "chain": "MSSVIKTIVVKTLQCTVKCVCVGVRQQYGLLRRHPKTIACALVGGIIAHDVLHLYAAVYRVENPWEFVPTEGPRGVIVLRVYNALRFTAAKWRWNCWTIFGKFPFNSEQFSRIMETSTERKPDLRPLLVPAHETIEVYPCNNIHSHPRSAEFRSSANEYLVRSVRRAGYPPYVVSSSKRDFCDGNRFFYCPKDFGMQFRNDPISNNHALVFTDVDYYANMNRWLQLFLPTCLYTLVPTRLNYSNDEFAYRFENN", "notes": "also called 1–254 His/protA; wt protein A fragment aa 1–254; source: in vitro translated in nuclease-treated rabbit reticulocyte lysates"}}, "key": {"[1]": {"target": "the molecule itself", "assay": "cross-linking; MBP-tagged protein in cross-linking buffer (10 mM HEPES pH 7.4, 50 mM MgCl2, 1 mM DTT, 1% glycerol, 0.03% glutaraldehyde), then 10% SDS-PAGE"}, "[2]": {"target": "T1, MBP-protA fragment aa 481–659 (Wuhan nodavirus (WhNV), UniProt Q3KSM3 481-659)", "T1 construct": "source: E. coli strain TB1, purified (amylose resin); not shown: MBP, N-terminal, kept", "T1 sequence": "B2 chain", "assay": "pull-down; MBP fusion protein (1 µM) held on amylose resin, His-tagged protein (1 µM) in vitro translated in rabbit reticulocyte lysate; room temperature, 4 hrs; no lipids; Western blot with anti-His; signals given as % of FL to FL protein A self-interaction", "settings": "one partner purified"}, "[3]": {"target": "T2, MBP-protA fragment aa 255–480 (Wuhan nodavirus (WhNV), UniProt Q3KSM3 255-480)", "T2 construct": "source: E. coli strain TB1, purified (amylose resin); not shown: MBP, N-terminal, kept", "T2 sequence": "B3 chain", "assay": "pull-down; MBP fusion protein (1 µM) held on amylose resin, His-tagged protein (1 µM) in vitro translated in rabbit reticulocyte lysate; room temperature, 4 hrs; no lipids; Western blot with anti-His; signals given as % of FL to FL protein A self-interaction", "settings": "one partner purified"}, "[4]": {"target": "T3, MBP-protA fragment aa 1–254 (Wuhan nodavirus (WhNV), UniProt Q3KSM3 1-254)", "T3 construct": "also called 1–254 MBP/protA; source: E. coli strain TB1, purified (amylose resin); not shown: MBP, N-terminal, kept", "T3 sequence": "B4 chain", "assay": "pull-down; MBP fusion protein (1 µM) held on amylose resin, His-tagged protein (1 µM) in vitro translated in rabbit reticulocyte lysate; room temperature, 4 hrs; no lipids; Western blot with anti-His; signals given as % of FL to FL protein A self-interaction", "settings": "one partner purified"}}}
{"binder": "B1", "values": [{"measurement": "stoichiometry N", "setting": "[1]", "value": 2}]}
{"binder": "B2", "values": [{"measurement": "homotypic interaction, % of FL to FL protein A self-interaction", "setting": "[2]", "value": 2, "unit": "%"}]}
{"binder": "B3", "values": [{"measurement": "homotypic interaction, % of FL to FL protein A self-interaction", "setting": "[3]", "value": 55, "unit": "%"}]}
{"binder": "B4", "values": [{"measurement": "homotypic interaction, % of FL to FL protein A self-interaction", "setting": "[4]", "value": 73, "unit": "%"}]}
